# B1: Ras-related GTP-binding protein D (Homo sapiens), Q9NQL2 (parent)
# chain: MSQVLGKPQPQDEDDAEEEEEEDELVGLADYGDGPDSSDADPDSGTEEGVLDFSDPFSTEVKPRILLMGLRRSGKSSIQKVVFHKMSPNETLFLESTNKICREDVSNSSFVNFQIWDFPGQIDFFDPTFDYEMIFRGTGALIFVIDSQDDYMEALARLHLTVTRAYKVNTDINFEVFIHKVDGLSDDHKIETQRDIHQRANDDLADAGLEKIHLSFYLTSIYDHSIFEAFSKVVQKLIPQLPTLENLLNIFISNSGIEKAFLFDVVSKIYIATDSTPVDMQTYELCCDMIDVVIDISCIYGLKEDGAGTPYDKESTAIIKLNNTTVLYLKEVTKFLALVCFVREESFERKGLIDYNFHCFRKAIHEVFEVRMKVVKSRKVQNRLQKKKRATPNGTPRVLL
# Variants of: B1
# Conditions: with sylc_human LARS1, Q9P2J5
# Chain of sylc_human LARS1, Q9P2J5 (Q9P2J5 whole entry, looked up): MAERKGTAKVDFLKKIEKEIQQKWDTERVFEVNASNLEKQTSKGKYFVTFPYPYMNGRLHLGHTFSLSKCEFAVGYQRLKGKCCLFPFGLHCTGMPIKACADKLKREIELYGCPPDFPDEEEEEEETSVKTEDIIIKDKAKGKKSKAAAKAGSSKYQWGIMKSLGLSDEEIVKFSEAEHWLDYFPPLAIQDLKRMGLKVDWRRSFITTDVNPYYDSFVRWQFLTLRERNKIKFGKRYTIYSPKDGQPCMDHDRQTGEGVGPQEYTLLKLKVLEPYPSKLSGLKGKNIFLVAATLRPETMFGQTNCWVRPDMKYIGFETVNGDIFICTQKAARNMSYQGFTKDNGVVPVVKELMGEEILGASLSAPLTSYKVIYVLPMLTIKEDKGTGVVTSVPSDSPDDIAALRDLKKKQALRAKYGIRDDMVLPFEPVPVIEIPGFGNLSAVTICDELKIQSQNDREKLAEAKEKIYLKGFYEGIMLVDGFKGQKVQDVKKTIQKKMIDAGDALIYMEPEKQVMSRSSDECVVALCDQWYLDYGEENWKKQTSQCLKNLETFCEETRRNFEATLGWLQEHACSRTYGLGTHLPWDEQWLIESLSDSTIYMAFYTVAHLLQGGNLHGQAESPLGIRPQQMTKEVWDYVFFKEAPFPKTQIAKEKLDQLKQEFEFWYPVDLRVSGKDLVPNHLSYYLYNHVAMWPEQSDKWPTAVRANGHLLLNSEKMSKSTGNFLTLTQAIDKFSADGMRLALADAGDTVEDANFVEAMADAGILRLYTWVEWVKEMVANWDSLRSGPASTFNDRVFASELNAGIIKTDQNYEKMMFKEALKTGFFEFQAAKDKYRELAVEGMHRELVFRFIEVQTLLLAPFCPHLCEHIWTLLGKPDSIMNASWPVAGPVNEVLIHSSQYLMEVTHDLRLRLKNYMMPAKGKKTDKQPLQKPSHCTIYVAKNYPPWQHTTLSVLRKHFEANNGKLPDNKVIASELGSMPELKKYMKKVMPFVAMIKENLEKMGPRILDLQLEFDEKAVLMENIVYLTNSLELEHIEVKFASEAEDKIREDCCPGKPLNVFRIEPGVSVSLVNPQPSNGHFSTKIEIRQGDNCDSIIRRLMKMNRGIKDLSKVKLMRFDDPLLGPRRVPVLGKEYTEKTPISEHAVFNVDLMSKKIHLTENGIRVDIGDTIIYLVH
row,Variant,effect of a mutation on the interaction
1,MSQVLGKPQPQDEDDAEEEEEEDELVGLADYGDGPDSSDADPDSGTEEGVLDFSDPFSTEVKPRILLMGLRRSGKSLIQKVVFHKMSPNETLFLESTNKICREDVSNSSFVNFQIWDFPGQIDFFDPTFDYEMIFRGTGALIFVIDSQDDYMEALARLHLTVTRAYKVNTDINFEVFIHKVDGLSDDHKIETQRDIHQRANDDLADAGLEKIHLSFYLTSIYDHSIFEAFSKVVQKLIPQLPTLENLLNIFISNSGIEKAFLFDVVSKIYIATDSTPVDMQTYELCCDMIDVVIDISCIYGLKEDGAGTPYDKESTAIIKLNNTTVLYLKEVTKFLALVCFVREESFERKGLIDYNFHCFRKAIHEVFEVRMKVVKSRKVQNRLQKKKRATPNGTPRVLL [S77L],decreasing interaction strength
2,MSQVLGKPQPQDEDDAEEEEEEDELVGLADYGDGPDSSDADPDSGTEEGVLDFSDPFSTEVKPRILLMGLRRSGKSSIQKVVFHKMSPNETLFLESTNKICREDVSNSSFVNFQIWDFPGLIDFFDPTFDYEMIFRGTGALIFVIDSQDDYMEALARLHLTVTRAYKVNTDINFEVFIHKVDGLSDDHKIETQRDIHQRANDDLADAGLEKIHLSFYLTSIYDHSIFEAFSKVVQKLIPQLPTLENLLNIFISNSGIEKAFLFDVVSKIYIATDSTPVDMQTYELCCDMIDVVIDISCIYGLKEDGAGTPYDKESTAIIKLNNTTVLYLKEVTKFLALVCFVREESFERKGLIDYNFHCFRKAIHEVFEVRMKVVKSRKVQNRLQKKKRATPNGTPRVLL [Q121L],increasing interaction strength

# — IntAct's records for PubMed 22424946
